Experimental data as given in patent US20090123479A1 (published 2009).

T1: recombinant human IL-23 (human, UniProt Q9NPF7 20-189; P29460 23-328)
T1 construct: also called hIL-23
T1 sequence 1: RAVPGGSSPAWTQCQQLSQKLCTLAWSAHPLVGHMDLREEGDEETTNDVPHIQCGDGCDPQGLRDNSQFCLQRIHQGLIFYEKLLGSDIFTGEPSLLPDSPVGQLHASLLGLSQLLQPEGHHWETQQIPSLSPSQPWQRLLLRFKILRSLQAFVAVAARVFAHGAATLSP
T1 sequence 2: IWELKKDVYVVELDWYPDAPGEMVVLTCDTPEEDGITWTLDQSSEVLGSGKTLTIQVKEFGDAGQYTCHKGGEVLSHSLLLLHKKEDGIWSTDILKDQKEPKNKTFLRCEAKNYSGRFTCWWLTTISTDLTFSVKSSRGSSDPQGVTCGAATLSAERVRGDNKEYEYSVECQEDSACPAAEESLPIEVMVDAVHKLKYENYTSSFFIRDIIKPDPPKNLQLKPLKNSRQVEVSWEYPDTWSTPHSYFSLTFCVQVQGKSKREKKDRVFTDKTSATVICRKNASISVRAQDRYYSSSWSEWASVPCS

B1: A3M0 (antibody, human IgG1, kappa, V domains shown)
VH: QVQLVQSGAEVKKPGSSVKVSCKASGYTFTSYGITWVRQAPGQGLEWMGENYPRSGNTYYNEKFKGRVTITADKSTSTAYMELSSLRSEDTAVYYCARSEFISTVVAPYYYALDYWGQGTLVTVSS
VL: DIVMTQSPDSLAVSLGERATINCKASKKVTIFGSISALHWYQQKPGQPPKLIYNGAKLESGVPDRFSGSGSGTDFTLTISSLQAEDVAVYYCLQNKEVPYTFGGGTKVEIKR
notes: Full length chains; also called humanized mAb A3M0
B2: chimeric 8C92H6 HC1LC1 (antibody, V domains shown)
VH: QVQLQQSGAELARPGTSVKLSCKASGYTFTSYGITWVKQRTGQGLEWIGENYPRSGNTYYNEKFKGKATLTADKSSSTAYMELRSLTSEDSAVYFCARCEFISTVVAPYYYALDYWGQGTSLVTVS
VL: DIVLTQSPASLAVSLGQKATISCKASKKVTIFGSISALHWYQQKPGQPPKLIYNGAKLESGVSARFSDSGSQNRSPFGNQLSFTLTIDPVEADDAATYYCLQNKEVPYTFGGGTKLEIKR
notes: Murine variable regions with human constant regions; also called 8C92H6.HC1LC1 Chimera; 8C9 chimera

What was measured:
recombinant human IL-23 [1] = biological target: T1, recombinant human IL-23; test: SPR (Biacore T100), purified antibody captured on anti-human IgG, IL-23 analyte, 1:1 model
Description: Biacore analysis was carried out using a capture surface on a CM5 chip. Anti-human IgG (BR-1008-39) was used as the capturing agent. Anti-human IgG was coupled to a CM5 biosensor chip by primary amine coupling. Humanized antibody was captured on this immobilised surface and defined concentrations of IL-23 were passed over this captured surface. An injection of buffer over the captured antibody surface was used for double-referencing. […] T100 Biacore machine was used to generate the data; all runs were carried out at 25° C. using HBS EP. Data was analysed using the software inherent to the machine and fitted to the 1:1 model of binding. Tables 7 and 8 detail the IL-23 binding analysis carried out on the 8C92H6.HC1LC1 chimera and selected humanized variants in two separate experiments. Data presented in Tables 7 and 8 are from purified antibody samples. The data shown for the humanized variants is representative of a number of runs. The chimeric mAb (8C9H6.HC1LC1) was only run once in each experiment, so data shown for this mAb is from that one run.

recombinant human IL-23 [2] = biological target: T1, recombinant human IL-23; test: SPR (Biacore 3000), CHO supernatant antibody captured on Protein A or anti-human IgG, IL-23 analyte at 256, 64, 16, 4 nM
recombinant human IL-23 [3] = biological target: T1, recombinant human IL-23; test: SPR (Biacore 3000), CHO supernatant antibody captured on Protein A or anti-human IgG, IL-23 analyte at 100, 10, 1 nM
Description: Protein A or an anti-human IgG (Biacore BR-1008-39) was immobilised on a Biacore CM5 chip by primary amine coupling in accordance with the manufacturer's instructions. Anti IL-23 antibodies were captured on this surface and after a period of stabilisation, […] was passed over the antibody captured surface and a binding sensorgram was obtained. […] All runs were double referenced with a buffer injection over the captured antibody surface. Data was analysed using the 1:1 model using the software inherent to the Biacore 3000 or T100 depending upon which machine was used to generate kinetics. Analysis was carried out at 25° C. using HBS-EP buffer. Data presented in Tables 3-6 are on tissue culture supernatants of CHO cells transiently expressing the antibody of interest unless otherwise indicated. […]

Row | Binder | Kd (recombinant human IL-23 [1]) | koff (recombinant human IL-23 [1]) | kon (recombinant human IL-23 [1]) | Kd (recombinant human IL-23 [2]) | koff (recombinant human IL-23 [2]) | kon (recombinant human IL-23 [2]) | Kd (recombinant human IL-23 [3]) | koff (recombinant human IL-23 [3]) | kon (recombinant human IL-23 [3])
1 | B1 | 0.194 nM | 0.000237 s⁻¹ | 1.22e+06 M⁻¹ s⁻¹ | 1.1 nM | 0.00033 s⁻¹ | 300000 M⁻¹ s⁻¹ |  |  | 
2 | B2 |  |  |  |  |  |  | 1.4 nM | 0.00039 s⁻¹ | 270000 M⁻¹ s⁻¹
